These results are taken from patent US7667021 (dated 2010).

For test [1], the target named is IGFR1 (human). Nature of the test: SPR, 25C. A general note: Surface plasmon resonance follows binding to a sensor surface in real time, without labels.
Test [2] concerns the target IGFR1 (human). Description: SPR, 37C.

Chain of IGFR1 (human) (B1B5Y2 whole entry): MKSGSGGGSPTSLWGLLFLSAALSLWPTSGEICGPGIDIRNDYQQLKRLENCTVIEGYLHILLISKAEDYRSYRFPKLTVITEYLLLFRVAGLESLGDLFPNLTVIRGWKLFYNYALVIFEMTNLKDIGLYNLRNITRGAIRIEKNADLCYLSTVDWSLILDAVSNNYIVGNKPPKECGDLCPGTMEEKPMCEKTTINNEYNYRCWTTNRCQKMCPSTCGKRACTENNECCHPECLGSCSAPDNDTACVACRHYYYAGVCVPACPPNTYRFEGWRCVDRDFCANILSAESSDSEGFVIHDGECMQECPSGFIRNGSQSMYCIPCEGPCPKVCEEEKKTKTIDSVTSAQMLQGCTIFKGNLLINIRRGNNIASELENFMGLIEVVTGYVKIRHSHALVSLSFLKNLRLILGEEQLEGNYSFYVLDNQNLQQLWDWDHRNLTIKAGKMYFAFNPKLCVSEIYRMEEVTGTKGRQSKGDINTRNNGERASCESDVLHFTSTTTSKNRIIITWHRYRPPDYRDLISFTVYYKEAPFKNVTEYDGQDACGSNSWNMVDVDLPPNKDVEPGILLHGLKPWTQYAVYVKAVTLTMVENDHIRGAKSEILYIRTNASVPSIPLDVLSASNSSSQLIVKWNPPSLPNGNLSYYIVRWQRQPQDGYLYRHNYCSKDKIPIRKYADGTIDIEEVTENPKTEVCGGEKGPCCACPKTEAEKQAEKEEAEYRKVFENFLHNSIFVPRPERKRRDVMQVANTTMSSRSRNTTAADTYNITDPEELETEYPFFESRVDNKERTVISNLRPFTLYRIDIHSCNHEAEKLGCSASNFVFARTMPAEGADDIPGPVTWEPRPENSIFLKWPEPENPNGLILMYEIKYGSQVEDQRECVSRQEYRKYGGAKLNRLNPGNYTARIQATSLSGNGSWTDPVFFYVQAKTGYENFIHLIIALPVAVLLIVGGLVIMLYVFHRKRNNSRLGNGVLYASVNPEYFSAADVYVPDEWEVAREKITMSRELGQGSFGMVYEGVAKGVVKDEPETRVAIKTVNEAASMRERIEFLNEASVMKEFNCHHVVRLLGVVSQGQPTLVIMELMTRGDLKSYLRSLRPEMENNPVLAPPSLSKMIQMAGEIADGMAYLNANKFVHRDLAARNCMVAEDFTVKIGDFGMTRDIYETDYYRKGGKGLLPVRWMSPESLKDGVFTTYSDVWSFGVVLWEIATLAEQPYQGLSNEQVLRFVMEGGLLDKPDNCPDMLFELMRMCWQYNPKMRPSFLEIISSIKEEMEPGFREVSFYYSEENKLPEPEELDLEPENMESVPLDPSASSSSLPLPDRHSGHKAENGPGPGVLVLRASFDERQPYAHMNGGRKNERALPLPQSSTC

B1: 1H3 (antibody, V domains shown)
VH: EVQLVQSGGGLVLPGGSLRLSCAGSGFTFSNYAMHWIRQAPGKGLEWVSAIGAGGDTYYADSVKGRFTISRDNAKDSLYLQMNSLRAEDMAVYYCARGRHRNWYYYNKDYWGQGTLVTVSS
VL: EIVLTQSPATLSLSPGERATLSCRASQSVSSFLAWYQQKPGQAPRLLIYDASNRAPGIPARFSGSGSGTDFTLTISSLEPEDFAVYYCQQRSNWPRWTFGQGTKVEIKR
The Kd is the concentration at which binding is half-saturated. High values mean weaker binding, low ones tighter binding. In the test with IGFR1 [1], B1 returned a Kd of 860 pM.

B2: 19D12 (antibody, V domains shown)
VH: EVQLVQSGGGLVHPGGSLRLSCAASGFTFSSFAMHWVRQAPGKGLEWISVIDTRGATYYADSVKGRFTISRDNAKNSLYLQMNSLRAEDMAVYYCARLGNFYYGMDVWGQGTTVTVSS
VL: EIVLTQVPDFQSVTPKEKVTITCRASQSIGSSLHWYQQKPDQSPKLLIKYASQSLSGVPSRFSGSGSGTDFTLTINSLEAEDAAAYYCHQSSRLPHTFGGGTKVEIKR
For the molecule B2, the dissociation constant (Kd) in the test with IGFR1 [2] turned out to be 72.2 pM; with IGFR1 [1], 59.2 pM.

B3: 15H12 (antibody, V domains shown)
VH: EVQLVQSGGGLVHPGGSLRLSCAASGFTFSSFAMHWVRQAPGKGLEWISVIDTRGATYYADSVKGRFTISRDNAKNSLYLQMNSLRAEDMAVYYCARLGNFYYGMDVWGQGTTVTVSS
VL: EIVLTQVPDFQSVTPKEKVTITCRASQSIGSSLHWYQQKPDQSPKLLIKYASQSLSGVPSRFSGSGSGTDFTLTINSLEAEDAAAYYCHQSSRLPHTFGGGTKVEIKR
Regarding B3, the Kd with IGFR1 [2] amounted to 55.7 pM; in the test with IGFR1 [1] it was 44.8 pM.
